Source: patent US20130225506A1 (POLYPHOR, published 2013)
Numbered stars: 1 amine (or outer) side, 2 acyl side, 3 side chain; on linkers, the order of the positions; unused ones are H or OH. Square brackets hold non-standard residues; d marks the D form. Primed or numbered codes have the meaning given here. Pro((4S)NHBz) = proline with (4S)-NHBz, O=C(N[C@H]1C[C@@H](C(=O)[*:2])N([*:1])C1)c1ccccc1; (4S)Hyp(Bn) = O=C([C@@H]1C[C@H](OCc2ccccc2)CN1[*:1])[*:2]; Phe(4-CF3) = N[C@@H](Cc1ccc(C(F)(F)F)cc1)C(=O)O; dPro(cis-4-NH2) = N[C@H]1CN[C@@H](C(=O)O)C1; 1Nal = N[C@@H](Cc1cccc2ccccc12)C(=O)O; 2Nal = N[C@@H](Cc1ccc2ccccc2c1)C(=O)O; Pro(3S-OH) = O=C(O)[C@H]1NCC[C@@H]1O; hArg = N=C(N)NCCCC[C@H](N)C(=O)O; Tic = O=C(O)[C@@H]1Cc2ccccc2CN1; dHyp = O=C(O)[C@H]1C[C@H](O)CN1; dTic = O=C(O)[C@H]1Cc2ccccc2CN1; Cha = N[C@@H](CC1CCCCC1)C(=O)O; Chg = N[C@H](C(=O)O)C1CCCCC1; Orn(A41) = not defined here; Orn(A56) = not defined here; Orn(Ar2) = not defined here; Orn(Ar4) = not defined here; Orn(Ar7) = not defined here; dOrn = NCCC[C@@H](N)C(=O)O; dDab = NCC[C@@H](N)C(=O)O; Nle = CCCC[C@H](N)C(=O)O; Orn = NCCC[C@H](N)C(=O)O; dPip′ = not defined here; A56 = not defined here; Abu = CC[C@H](N)C(=O)O

Target: chemokine receptor CXCR7 (UniProt P25106 1-362, limits assumed)
Sequence (P25106 whole entry): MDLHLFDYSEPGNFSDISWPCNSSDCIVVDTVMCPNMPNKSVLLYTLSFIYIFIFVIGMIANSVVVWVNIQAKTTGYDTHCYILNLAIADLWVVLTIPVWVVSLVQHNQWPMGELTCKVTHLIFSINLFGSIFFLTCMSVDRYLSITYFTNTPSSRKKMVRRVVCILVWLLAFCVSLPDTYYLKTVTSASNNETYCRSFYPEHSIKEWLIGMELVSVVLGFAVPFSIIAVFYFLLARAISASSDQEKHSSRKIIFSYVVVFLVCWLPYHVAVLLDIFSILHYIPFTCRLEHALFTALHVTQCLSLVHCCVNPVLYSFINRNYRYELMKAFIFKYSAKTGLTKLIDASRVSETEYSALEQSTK
Assay: cell-based or functional assay

Row | β-Arrestin EC50 [nM] | Binder
1 | 76.9 | cyclo(R[dF]WR[dP][(4S)Hyp(Bn)]) (SMILES N=C(N)NCCC[C@@H]1NC(=O)[C@@H]2C[C@H](OCc3ccccc3)CN2C(=O)[C@H]2CCCN2C(=O)[C@H](CCCNC(=N)N)NC(=O)[C@H](Cc2c[nH]c3ccccc23)NC(=O)[C@@H](Cc2ccccc2)NC1=O) [cyclo(-Arg-^DPhe-Trp-Arg-^DPro-(4S)-Hyp(Bn)-)]
2 | 816 | cyclo(I[dR][Orn]W[dP]T) (SMILES CC[C@H](C)[C@@H]1NC(=O)[C@H]([C@@H](C)O)NC(=O)[C@H]2CCCN2C(=O)[C@H](Cc2c[nH]c3ccccc23)NC(=O)[C@H](CCCN)NC(=O)[C@@H](CCCNC(=N)N)NC1=O) [cyclo(-Ile-^DArg-Orn-Trp-^DPro-Thr-)]
3 | 271 | cyclo(V[dR]RW[dP]T) (SMILES CC(C)[C@@H]1NC(=O)[C@H]([C@@H](C)O)NC(=O)[C@H]2CCCN2C(=O)[C@H](Cc2c[nH]c3ccccc23)NC(=O)[C@H](CCCNC(=N)N)NC(=O)[C@@H](CCCNC(=N)N)NC1=O) [cyclo(-Val-^DArg-Arg-Trp-^DPro-Thr-)]
4 | 4.5 | cyclo(I[dR]R[Phe(4-CF3)][dP]T) (SMILES CC[C@H](C)[C@@H]1NC(=O)[C@H]([C@@H](C)O)NC(=O)[C@H]2CCCN2C(=O)[C@H](Cc2ccc(C(F)(F)F)cc2)NC(=O)[C@H](CCCNC(=N)N)NC(=O)[C@@H](CCCNC(=N)N)NC1=O) [cyclo(-Ile-^DArg-Arg-Phe(4CF3)-^DPro-Thr-)]
5 | 14 | cyclo(W[dF]W[Orn](A56)[dPip′][Pro(3S-OH)]) (reading uncertain; also: printed as cyclo(-Trp-^DPhe-Trp-Orn(A56)-^DPip-Pro((3S)OH)-)) [cyclo(-Trp-^DPhe-Trp-Orn(A56)-^DPip-Pro((3S)OH)-)]
6 | 948 | cyclo(I[dR]RW[dPro(cis-4-NH2)]T) (SMILES CC[C@H](C)[C@@H]1NC(=O)[C@H]([C@@H](C)O)NC(=O)[C@H]2C[C@@H](N)CN2C(=O)[C@H](Cc2c[nH]c3ccccc23)NC(=O)[C@H](CCCNC(=N)N)NC(=O)[C@@H](CCCNC(=N)N)NC1=O) [cyclo(-Ile-^DArg-Arg-Trp-^DPro((4R)NH2)-Thr-)]
7 | 29.9 | cyclo([Ala(1Pyraz)][dF]WR[dPro(cis-4-NH2)][Tic]) [cyclo(-Ala(1Pyraz)-^DPhe-Trp-Arg-^DPro((4R)NH2)-Tic-)]
8 | 6.6 | cyclo(W[dF]WR[dPro(cis-4-NH2)][(4S)Hyp(Bn)]) (SMILES N=C(N)NCCC[C@@H]1NC(=O)[C@H](Cc2c[nH]c3ccccc23)NC(=O)[C@@H](Cc2ccccc2)NC(=O)[C@H](Cc2c[nH]c3ccccc23)NC(=O)[C@@H]2C[C@H](OCc3ccccc3)CN2C(=O)[C@H]2C[C@@H](N)CN2C1=O) [cyclo(-Trp-^DPhe-Trp-Arg-^DPro((4R)NH2)-(4S)-Hyp(Bn)-)]
9 | 632 | cyclo(I[dR]RW[dHyp]T) (not fully specified) [cyclo(-Ile-^DArg-Arg-Trp-^DPro((4S)OH)-Thr-)]
10 | 336 | cyclo(I[dR][Orn(Ar7)]W[dP]T) (reading uncertain; also: printed as cyclo(-Ile-^DArg-Orn(Ar7)-Trp-^DPro-Thr-)) [cyclo(-Ile-^DArg-Orn(Ar7)-Trp-^DPro-Thr-)]
11 | 330 | cyclo([Abu][dR]RW[dP]T) (SMILES CC[C@@H]1NC(=O)[C@H]([C@@H](C)O)NC(=O)[C@H]2CCCN2C(=O)[C@H](Cc2c[nH]c3ccccc23)NC(=O)[C@H](CCCNC(=N)N)NC(=O)[C@@H](CCCNC(=N)N)NC1=O) [cyclo(-Abu-^DArg-Arg-Trp-^DPro-Thr-)]
12 | 48.4 | cyclo(I[dDab]RW[dP]T) (SMILES CC[C@H](C)[C@@H]1NC(=O)[C@H]([C@@H](C)O)NC(=O)[C@H]2CCCN2C(=O)[C@H](Cc2c[nH]c3ccccc23)NC(=O)[C@H](CCCNC(=N)N)NC(=O)[C@@H](CCN)NC1=O) [cyclo(-Ile-^DDab-Arg-Trp-^DPro-Thr-)]
13 | 13.7 | cyclo([1Nal][dR]RW[dP][Pro(3S-OH)]) (SMILES N=C(N)NCCC[C@@H]1NC(=O)[C@@H](CCCNC(=N)N)NC(=O)[C@H](Cc2cccc3ccccc23)NC(=O)[C@@H]2[C@@H](O)CCN2C(=O)[C@H]2CCCN2C(=O)[C@H](Cc2c[nH]c3ccccc23)NC1=O) [cyclo(-1Nal-^DArg-Arg-Trp-^DPro-Pro((3S)OH)-)]
14 | 6.7 | cyclo([Chg][dR]RW[dP]T) (SMILES C[C@@H](O)[C@@H]1NC(=O)[C@H]2CCCN2C(=O)[C@H](Cc2c[nH]c3ccccc23)NC(=O)[C@H](CCCNC(=N)N)NC(=O)[C@@H](CCCNC(=N)N)NC(=O)[C@H](C2CCCCC2)NC1=O) [cyclo(-Chg-^DArg-Arg-Trp-^DPro-Thr-)]
15 | 7.6 | cyclo(W[dF]WR[dHyp][(4S)Hyp(Bn)]) (SMILES N=C(N)NCCC[C@@H]1NC(=O)[C@H](Cc2c[nH]c3ccccc23)NC(=O)[C@@H](Cc2ccccc2)NC(=O)[C@H](Cc2c[nH]c3ccccc23)NC(=O)[C@@H]2C[C@H](OCc3ccccc3)CN2C(=O)[C@H]2C[C@H](O)CN2C1=O) [cyclo(-Trp-^DPhe-Trp-Arg-^DPro((4S)OH)-(4S)-Hyp(Bn)-)]
16 | 4.6 | cyclo(I[dR][Orn(Ar4)]W[dP]T) (reading uncertain; also: printed as cyclo(-Ile-^DArg-Orn(Ar4)-Trp-^DPro-Thr-)) [cyclo(-Ile-^DArg-Orn(Ar4)-Trp-^DPro-Thr-)]
17 | 14.2 | cyclo(I[dR]RW[dTic]T) (SMILES CC[C@H](C)[C@@H]1NC(=O)[C@H]([C@@H](C)O)NC(=O)[C@H]2Cc3ccccc3CN2C(=O)[C@H](Cc2c[nH]c3ccccc23)NC(=O)[C@H](CCCNC(=N)N)NC(=O)[C@@H](CCCNC(=N)N)NC1=O) [cyclo(-Ile-^DArg-Arg-Trp-^DTic-Thr-)]
18 | 453 | cyclo(I[dR][Orn(Ar2)]W[dP]T) (reading uncertain; also: printed as cyclo(-Ile-^DArg-Orn(Ar2)-Trp-^DPro-Thr-)) [cyclo(-Ile-^DArg-Orn(Ar2)-Trp-^DPro-Thr-)]
19 | 11 | cyclo(I[dR][hArg]W[dP]T) (SMILES CC[C@H](C)[C@@H]1NC(=O)[C@H]([C@@H](C)O)NC(=O)[C@H]2CCCN2C(=O)[C@H](Cc2c[nH]c3ccccc23)NC(=O)[C@H](CCCCNC(=N)N)NC(=O)[C@@H](CCCNC(=N)N)NC1=O) [cyclo(-Ile-^DArg-hArg-Trp-^DPro-Thr-)]
20 | 23.3 | cyclo(I[dOrn]RW[dP]T) (SMILES CC[C@H](C)[C@@H]1NC(=O)[C@H]([C@@H](C)O)NC(=O)[C@H]2CCCN2C(=O)[C@H](Cc2c[nH]c3ccccc23)NC(=O)[C@H](CCCNC(=N)N)NC(=O)[C@@H](CCCN)NC1=O) [cyclo(-Ile-^DOrn-Arg-Trp-^DPro-Thr-)]
21 | 46.4 | cyclo(I[dR]RF[dP]T) (SMILES CC[C@H](C)[C@@H]1NC(=O)[C@H]([C@@H](C)O)NC(=O)[C@H]2CCCN2C(=O)[C@H](Cc2ccccc2)NC(=O)[C@H](CCCNC(=N)N)NC(=O)[C@@H](CCCNC(=N)N)NC1=O) [cyclo(-Ile-^DArg-Arg-Phe-^DPro-Thr-)]
22 | 2.8 | cyclo([Nle][dR]RW[dP]T) (SMILES CCCC[C@@H]1NC(=O)[C@H]([C@@H](C)O)NC(=O)[C@H]2CCCN2C(=O)[C@H](Cc2c[nH]c3ccccc23)NC(=O)[C@H](CCCNC(=N)N)NC(=O)[C@@H](CCCNC(=N)N)NC1=O) [cyclo(-Nle-^DArg-Arg-Trp-^DPro-Thr-)]
23 | 414 | cyclo(H[dW]HW[dP][Pro((4S)NHBz)]) (SMILES O=C(N[C@H]1C[C@H]2C(=O)N[C@@H](Cc3c[nH]cn3)C(=O)N[C@H](Cc3c[nH]c4ccccc34)C(=O)N[C@@H](Cc3c[nH]cn3)C(=O)N[C@@H](Cc3c[nH]c4ccccc34)C(=O)N3CCC[C@@H]3C(=O)N2C1)c1ccccc1) [cyclo(-His-^DTrp-His-Trp-^DPro-Pro((4S)NHBz)-)]
24 | 53.2 | cyclo(I[dT]RW[dP]T) (SMILES CC[C@H](C)[C@@H]1NC(=O)[C@H]([C@@H](C)O)NC(=O)[C@H]2CCCN2C(=O)[C@H](Cc2c[nH]c3ccccc23)NC(=O)[C@H](CCCNC(=N)N)NC(=O)[C@@H]([C@H](C)O)NC1=O) [cyclo(-Ile-^DThr-Arg-Trp-^DPro-Thr-)]
25 | 8.2 | cyclo(I[dR]RW[dPip′][Pro(3S-OH)]) [cyclo(-Ile-^DArg-Arg-Trp-^DPip-Pro((3S)OH)-)]
26 | 37.7 | cyclo([Cha][dR]RW[dP]T) (SMILES C[C@@H](O)[C@@H]1NC(=O)[C@H]2CCCN2C(=O)[C@H](Cc2c[nH]c3ccccc23)NC(=O)[C@H](CCCNC(=N)N)NC(=O)[C@@H](CCCNC(=N)N)NC(=O)[C@H](CC2CCCCC2)NC1=O) [cyclo(-Cha-^DArg-Arg-Trp-^DPro-Thr-)]
27 | 5.3 | cyclo(L[dR]RW[dP]T) (SMILES CC(C)C[C@@H]1NC(=O)[C@H]([C@@H](C)O)NC(=O)[C@H]2CCCN2C(=O)[C@H](Cc2c[nH]c3ccccc23)NC(=O)[C@H](CCCNC(=N)N)NC(=O)[C@@H](CCCNC(=N)N)NC1=O) [cyclo(-Leu-^DArg-Arg-Trp-^DPro-Thr-)]
28 | 3.2 | cyclo(I[dR][Orn(A56)]W[dP]T) (reading uncertain; also: printed as cyclo(-Ile-^DArg-Orn(A56)-Trp-^DPro-Thr-)) [cyclo(-Ile-^DArg-Orn(A56)-Trp-^DPro-Thr-)]
29 | 76.8 | cyclo(I[dR]R[2Nal][dP][Pro(3S-OH)]) (SMILES CC[C@H](C)[C@@H]1NC(=O)[C@@H]2[C@@H](O)CCN2C(=O)[C@H]2CCCN2C(=O)[C@H](Cc2ccc3ccccc3c2)NC(=O)[C@H](CCCNC(=N)N)NC(=O)[C@@H](CCCNC(=N)N)NC1=O) [cyclo(-Ile-^DArg-Arg-2Nal-^DPro-Pro((3S)OH)-)]
30 | 518 | cyclo(I[dR][Orn(A41)]W[dP]T) (reading uncertain; also: printed as cyclo(-Ile-^DArg-Orn(A41)-Trp-^DPro-Thr-)) [cyclo(-Ile-^DArg-Orn(A41)-Trp-^DPro-Thr-)]
